Test results published in publication PMC2443653.

Biological target: rPrP23-231 (full-length mature recombinant prion protein) (mouse, UniProt P04925 23-231)
Assay: fluorescence anisotropy

rPrP23-231 (full-length mature recombinant prion protein), sequence (P04925 23-231): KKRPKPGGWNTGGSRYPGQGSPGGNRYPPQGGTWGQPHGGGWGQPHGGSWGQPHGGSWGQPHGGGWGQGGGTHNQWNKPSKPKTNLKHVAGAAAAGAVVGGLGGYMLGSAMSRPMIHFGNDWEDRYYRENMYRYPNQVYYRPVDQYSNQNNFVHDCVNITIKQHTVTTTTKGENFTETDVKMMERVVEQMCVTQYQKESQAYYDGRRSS

Binder: AAACAUGGGUUCCCAUGU (structured_RNA) [opRNA]
- binding result: binds
